Experimental data: paper PMC8217511 (2021)
Like-named read-outs stand apart in the source and are kept apart here.

B1: CrSAS-6_6HR, N-terminal domain and six heptad repeats of the coiled-coil of Chlamydomonas reinhardtii SAS-6 (domain or fragment)
chain: MPLLLDDGDPKAQTGFDLSTATTLFWRPVPVHVKQQDREDVLEELTFRILTGVAKQNHNLRILRIHISSDSDLFFLHTLEVSEEDFQSLKNDQGILVDFASFPGKIISLLEKCILAQPGDSPRFQAVLTIRGGESVFKIVEINDFKQLPHITLAFRPGNDSVVKQFLAFRLSEVKGTCHDLSDDLSRTRDDRDSMVAQLAQCRQQLAQLREQYDKHLLEVQAQAKT
B2: monobody MB_(CRS6)-15, purified (designed binder)
chain: GSVSSVPTKLEVVAATPTSLLISWDAPAVTVYLYVITYGETGGNSPVQEFEVPGSKSTATISGLKPGVDYTITVYASSKHSSRYASPISINYRT

Experiments:
Assay in all cases: ITC
MBCRS6-5 [1] = molecular target: MBCRS6-5
MBCRS6-12 = molecular target: MBCRS6-12
MBCRS6-6 = molecular target: MBCRS6-6
MBCRS6-5 [2] = molecular target: MBCRS6-5; remark: listed apart in the source
MBCRS6-2 = molecular target: MBCRS6-2
MBCRS6-4 = molecular target: MBCRS6-4
MBCRS6-3 = molecular target: MBCRS6-3
[3] = molecular target: B1

Row | Binder | Kd (MBCRS6-5 [1]) | Kd (MBCRS6-12) | Kd (MBCRS6-6) | Kd (MBCRS6-5 [2]) | Kd (MBCRS6-2) | Kd (MBCRS6-4) | Kd (MBCRS6-3) | Kd [3]
1 | B1 | 31.1 nM | 193 nM | 570 nM | 31 nM | 88.7 µM | 316 nM | 369 nM | 
2 | B2 |  |  |  |  |  |  |  | 468 nM
